Laboratory results as given in article PMC6881174.
Values joined by “and” are separate entries in the source; they are usually repeats but may differ in a detail not shown here. Equal values may be shown once.

Target: TRIM5α from African green monkey, L81F (African green monkey)
Test: cryo-EM structure

TRIM5α from African green monkey, L81F (natural protein)
stoichiometry N: 3 and 2
